# Measured values published in patent publication US12077763B2, “RNA-based control of powdery mildew” (Greenlight Biosciences, Inc., priority 2021, dated 2024).
# Tested on: E. necator
# Assay: Leaf disc assay, dry inoculum (settling tower), decrease in disease severity / hyphal growth (Example 2)
# Settings: decrease in disease severity (hyphal growth) relative to untreated control, value ± SE; for % decrease =/− SE TP1: time point 1 (untreated control hyphal growth ≥50%); for % decrease =/− SE TP2: time point 2
Molecule,% decrease =/− SE TP1 [%],% decrease =/− SE TP2 [%]
GS1813: dsRNA trigger SEQ ID NO 117; gene target hypothetical_protein_BC1G_11193 (nucleic acid) DNA: CAATACTTATAGACATAATGTATATTGATAATAATCTAGTGTTGCATATCATTGATGAAGCAACTAATTTTCAGGCGGCTAGGTGGCTCAATAATATCTCTGCCAAACATACATGGGATGCCATACGTGCTTGTTGGATTGATACTTACGTTGGGCCCCCAGACTGCATAATAACAGATGCTGGTAAAAACTTCGTTAGCAAGGAATTTAATCAAAATGCATCATCAATGGAAATTTCGGTGAAAAACGTTCCTGTTGAAGCGCATTGGTCAATAGGAAAAATAGAGCGCTATCACTCTTGCATTCGTCGAGCTTATAAAATTATATCAGAAGAACTAGCTGGAACCGGAATCGGCAAAGAGTTTATGCTCCAGATGGCGGTAAAAGCCATAAACGACACAGCCGGACCTAATGGCTTAGTCCCAACTCTTTTAGTTTTTGGAGCTTATCCAAGAATGTCAAATTTAGACCCTCCTATGCCATCCATAATTCAACGGGCTGCTGCAATCAAAAAGGCGATGCTAGAGATAAGTAAATTACGCGCAAAGCTAACCGTGAATAGTGCTCTAAACCATCGAAACGGACCGAATACGAATA,11 ± 5,4 ± 5
GS3625 (nucleic acid) sense: GUUUGCCUUUCCAAAUAUCCAUCAUGCAGCUUUGUAACGUACCUCUCGUCCUGUUUGGUCUCCUCUGCUUUGGACUAGUUUCAACUGCUCCAGCACCAAACUCACCUUGGCAUCUACGAAGCCGACAGGAAGGUGGUGGCUACUAUGGCCAACCAUCGAAUGGUGAUGGAAGUGUGUAUCCACCUUCAUCUGGUACAGGUGGCUUUCUAUCGCCAACUGCUACGAGCGGUUAUCCGUCUGCAACUGGAACUGGCGGCUAUUCAUCUCCAUCGGGCACCGGUGGCUACCCGUCUGCAACAGGUACAGGUGGUUACGCAUCGCCAACAGGGACCAGUUACCCUACACCUACUGGAGGUUACUCUGAAGAGCCCUACCACUAUAAAGGUGUCAAGCUAGGUC antisense: GACCUAGCUUGACACCUUUAUAGUGGUAGGGCUCUUCAGAGUAACCUCCAGUAGGUGUAGGGUAACUGGUCCCUGUUGGCGAUGCGUAACCACCUGUACCUGUUGCAGACGGGUAGCCACCGGUGCCCGAUGGAGAUGAAUAGCCGCCAGUUCCAGUUGCAGACGGAUAACCGCUCGUAGCAGUUGGCGAUAGAAAGCCACCUGUACCAGAUGAAGGUGGAUACACACUUCCAUCACCAUUCGAUGGUUGGCCAUAGUAGCCACCACCUUCCUGUCGGCUUCGUAGAUGCCAAGGUGAGUUUGGUGCUGGAGCAGUUGAAACUAGUCCAAAGCAGAGGAGACCAAACAGGACGAGAGGUACGUUACAAAGCUGCAUGAUGGAUAUUUGGAAAGGCAAAC,1 ± 2,0 ± 3
GS3620 (nucleic acid) sense: AGUUGAAGUGCUGUAAAUGGUACAGUCAUGGAAAGAGUAGUUGGAUACGAGAUAUAGAAGGCUGUGAUGCCUUCAGUGCGAUAGAUAUAGCGGGCACAAUCACUCAGUGAUCUAUAAAUUUUGCGAGAGUUAUGCAUUUGCAUUCUUUGCUUUAUUACAUCAAAUGGGUUCAUUAAAGCAUCACUUGCAAUUGUUGCGCAUGCCCCACUUGUAACUAUGUAGCUUCAGUAAGUGCUCAAUAUCAAGGAUAAAUUGGCGAUGUAGUCAUAUAUGUCUGAUUCCUUAAUCAAAAUUCUUAAU antisense: AUUAAGAAUUUUGAUUAAGGAAUCAGACAUAUAUGACUACAUCGCCAAUUUAUCCUUGAUAUUGAGCACUUACUGAAGCUACAUAGUUACAAGUGGGGCAUGCGCAACAAUUGCAAGUGAUGCUUUAAUGAACCCAUUUGAUGUAAUAAAGCAAAGAAUGCAAAUGCAUAACUCUCGCAAAAUUUAUAGAUCACUGAGUGAUUGUGCCCGCUAUAUCUAUCGCACUGAAGGCAUCACAGCCUUCUAUAUCUCGUAUCCAACUACUCUUUCCAUGACUGUACCAUUUACAGCACUUCAACU,6 ± 8,8 ± 7
GS3626 (nucleic acid) sense: GCAGCUUUGUAACGUACCUCUCGUCCUGUUUGGUCUCCUCUGCUUUGGACUAGUUUCAACUGCUCCAGCACCAAACUCACCUUGGCAUCUACGAAGCCGACAGGAAGGUGGUGGCUACUAUGGCCAACCAUCGAAUGGUGAUGGAAGUGUGUAUCCACCUUCAUCUGGUACAGGUGGCUUUCUAUCGCCAACUGCUACGAGCGGUUAUCCGUCUGCAACUGGAACUGGCGGCUAUUCAUCUCCAUCGGGCACCGGUGGCUACCCGUCUGCAACAGGUACAGGUGGUUACGCAUCGCCAACAGGGACCAGUUACCCUACACCUACUGGAGGUUACUCUGAAGAGCCCUAC antisense: GUAGGGCUCUUCAGAGUAACCUCCAGUAGGUGUAGGGUAACUGGUCCCUGUUGGCGAUGCGUAACCACCUGUACCUGUUGCAGACGGGUAGCCACCGGUGCCCGAUGGAGAUGAAUAGCCGCCAGUUCCAGUUGCAGACGGAUAACCGCUCGUAGCAGUUGGCGAUAGAAAGCCACCUGUACCAGAUGAAGGUGGAUACACACUUCCAUCACCAUUCGAUGGUUGGCCAUAGUAGCCACCACCUUCCUGUCGGCUUCGUAGAUGCCAAGGUGAGUUUGGUGCUGGAGCAGUUGAAACUAGUCCAAAGCAGAGGAGACCAAACAGGACGAGAGGUACGUUACAAAGCUGC,3 ± 7,26 ± 7
GS3619 (nucleic acid) sense: UGUAGAUACAGAUUCGUAUGCGAGAAGUUGAAGUGCUGUAAAUGGUACAGUCAUGGAAAGAGUAGUUGGAUACGAGAUAUAGAAGGCUGUGAUGCCUUCAGUGCGAUAGAUAUAGCGGGCACAAUCACUCAGUGAUCUAUAAAUUUUGCGAGAGUUAUGCAUUUGCAUUCUUUGCUUUAUUACAUCAAAUGGGUUCAUUAAAGCAUCACUUGCAAUUGUUGCGCAUGCCCCACUUGUAACUAUGUAGCUUCAGUAAGUGCUCAAUAUCAAGGAUAAAUUGGCGAUGUAGUCAUAUAUGUCUGAUUCCUUAAUCAAAAUUCUUAAUACAGACCUGCUGCAAUAGGAUGAUG antisense: CAUCAUCCUAUUGCAGCAGGUCUGUAUUAAGAAUUUUGAUUAAGGAAUCAGACAUAUAUGACUACAUCGCCAAUUUAUCCUUGAUAUUGAGCACUUACUGAAGCUACAUAGUUACAAGUGGGGCAUGCGCAACAAUUGCAAGUGAUGCUUUAAUGAACCCAUUUGAUGUAAUAAAGCAAAGAAUGCAAAUGCAUAACUCUCGCAAAAUUUAUAGAUCACUGAGUGAUUGUGCCCGCUAUAUCUAUCGCACUGAAGGCAUCACAGCCUUCUAUAUCUCGUAUCCAACUACUCUUUCCAUGACUGUACCAUUUACAGCACUUCAACUUCUCGCAUACGAAUCUGUAUCUACA,9 ± 2,
GS3622 (nucleic acid) sense: AUGAAGUGCAGGAUUUUUCUCUAUAAGUUUCUUACGUUGUAGCGCCGAAGCUUCUCUAAGUUUAAUCUCUGAUGGAGAUAAAACGUUAUAUAUAGGCGUACCAACAGCAAUUGUCCCCUCUUUAAGUAGAUAUAACUUUCGCUUAUCUUUGUCUCGGUCAGUGCGGAAGUUUGUCCCAGCUUCUGUAAGUUUUACAGCUUUUUCUCGAUUAACUGCUCUUGACACUUGAAGUACGCGACCUUCUAUUGUGUAUAAGCCAUUCUUAUCAGCAGUUUCAUCCUCUAAAAUAGAGUUUUUAGCUUUAACAGCGUUUGCACCACUUUUGAAGGUACGAGGUGCACCAUGGUAACAAGAGUCCGCAUCUUCUUGUCUAUAGAAGCAAACAAAGCCAGUGCCUUUA antisense: UAAAGGCACUGGCUUUGUUUGCUUCUAUAGACAAGAAGAUGCGGACUCUUGUUACCAUGGUGCACCUCGUACCUUCAAAAGUGGUGCAAACGCUGUUAAAGCUAAAAACUCUAUUUUAGAGGAUGAAACUGCUGAUAAGAAUGGCUUAUACACAAUAGAAGGUCGCGUACUUCAAGUGUCAAGAGCAGUUAAUCGAGAAAAAGCUGUAAAACUUACAGAAGCUGGGACAAACUUCCGCACUGACCGAGACAAAGAUAAGCGAAAGUUAUAUCUACUUAAAGAGGGGACAAUUGCUGUUGGUACGCCUAUAUAUAACGUUUUAUCUCCAUCAGAGAUUAAACUUAGAGAAGCUUCGGCGCUACAACGUAAGAAACUUAUAGAGAAAAAUCCUGCACUUCAU,17 ± 4,
GS3623 (nucleic acid) sense: AGUUUCUUACGUUGUAGCGCCGAAGCUUCUCUAAGUUUAAUCUCUGAUGGAGAUAAAACGUUAUAUAUAGGCGUACCAACAGCAAUUGUCCCCUCUUUAAGUAGAUAUAACUUUCGCUUAUCUUUGUCUCGGUCAGUGCGGAAGUUUGUCCCAGCUUCUGUAAGUUUUACAGCUUUUUCUCGAUUAACUGCUCUUGACACUUGAAGUACGCGACCUUCUAUUGUGUAUAAGCCAUUCUUAUCAGCAGUUUCAUCCUCUAAAAUAGAGUUUUUAGCUUUAACAGCGUUUGCACCACUUUUGAAGGUACGAGGUGCACCAUGGUAACAAGAGUCCGCAUCUUCUUGUCUAUA antisense: UAUAGACAAGAAGAUGCGGACUCUUGUUACCAUGGUGCACCUCGUACCUUCAAAAGUGGUGCAAACGCUGUUAAAGCUAAAAACUCUAUUUUAGAGGAUGAAACUGCUGAUAAGAAUGGCUUAUACACAAUAGAAGGUCGCGUACUUCAAGUGUCAAGAGCAGUUAAUCGAGAAAAAGCUGUAAAACUUACAGAAGCUGGGACAAACUUCCGCACUGACCGAGACAAAGAUAAGCGAAAGUUAUAUCUACUUAAAGAGGGGACAAUUGCUGUUGGUACGCCUAUAUAUAACGUUUUAUCUCCAUCAGAGAUUAAACUUAGAGAAGCUUCGGCGCUACAACGUAAGAAACU,20 ± 3,
GS3618 (nucleic acid) sense: CGUAAGCCUUUGAUGGGUUCAGAAAUGUAGAUACAGAUUCGUAUGCGAGAAGUUGAAGUGCUGUAAAUGGUACAGUCAUGGAAAGAGUAGUUGGAUACGAGAUAUAGAAGGCUGUGAUGCCUUCAGUGCGAUAGAUAUAGCGGGCACAAUCACUCAGUGAUCUAUAAAUUUUGCGAGAGUUAUGCAUUUGCAUUCUUUGCUUUAUUACAUCAAAUGGGUUCAUUAAAGCAUCACUUGCAAUUGUUGCGCAUGCCCCACUUGUAACUAUGUAGCUUCAGUAAGUGCUCAAUAUCAAGGAUAAAUUGGCGAUGUAGUCAUAUAUGUCUGAUUCCUUAAUCAAAAUUCUUAAUACAGACCUGCUGCAAUAGGAUGAUGAGCUCCUGUUUGAUUACCUCCCAUG antisense: CAUGGGAGGUAAUCAAACAGGAGCUCAUCAUCCUAUUGCAGCAGGUCUGUAUUAAGAAUUUUGAUUAAGGAAUCAGACAUAUAUGACUACAUCGCCAAUUUAUCCUUGAUAUUGAGCACUUACUGAAGCUACAUAGUUACAAGUGGGGCAUGCGCAACAAUUGCAAGUGAUGCUUUAAUGAACCCAUUUGAUGUAAUAAAGCAAAGAAUGCAAAUGCAUAACUCUCGCAAAAUUUAUAGAUCACUGAGUGAUUGUGCCCGCUAUAUCUAUCGCACUGAAGGCAUCACAGCCUUCUAUAUCUCGUAUCCAACUACUCUUUCCAUGACUGUACCAUUUACAGCACUUCAACUUCUCGCAUACGAAUCUGUAUCUACAUUUCUGAACCCAUCAAAGGCUUACG,27 ± 4,
